Reference: PMC2659343
Like-named read-outs stand apart in the source and are kept apart here.

Legend:
[1] = molecular target: T1, MCR1 from 293T (co-expressed with GST-core RAG2);GST-core RAG2 (mouse?;mouse?, UniProt P15919;P21784 384-1008;1-387, |); assay: EMSA
T1 sequence 1: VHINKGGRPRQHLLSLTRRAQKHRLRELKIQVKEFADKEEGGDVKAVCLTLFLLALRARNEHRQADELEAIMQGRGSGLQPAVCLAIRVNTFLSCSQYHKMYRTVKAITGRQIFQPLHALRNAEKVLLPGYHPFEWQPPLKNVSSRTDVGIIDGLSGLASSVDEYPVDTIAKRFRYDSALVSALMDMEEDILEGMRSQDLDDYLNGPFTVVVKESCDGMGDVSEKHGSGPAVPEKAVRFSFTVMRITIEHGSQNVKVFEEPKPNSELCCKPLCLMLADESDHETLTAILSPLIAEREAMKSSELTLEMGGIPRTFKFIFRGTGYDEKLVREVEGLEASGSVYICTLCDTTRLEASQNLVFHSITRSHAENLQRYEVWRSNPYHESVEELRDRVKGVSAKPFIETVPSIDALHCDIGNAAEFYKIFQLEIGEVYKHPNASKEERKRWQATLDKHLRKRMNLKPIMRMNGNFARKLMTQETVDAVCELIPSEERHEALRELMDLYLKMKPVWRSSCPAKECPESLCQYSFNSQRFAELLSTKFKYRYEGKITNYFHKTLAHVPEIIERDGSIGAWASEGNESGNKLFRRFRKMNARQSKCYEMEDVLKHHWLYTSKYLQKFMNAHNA
T1 sequence 2: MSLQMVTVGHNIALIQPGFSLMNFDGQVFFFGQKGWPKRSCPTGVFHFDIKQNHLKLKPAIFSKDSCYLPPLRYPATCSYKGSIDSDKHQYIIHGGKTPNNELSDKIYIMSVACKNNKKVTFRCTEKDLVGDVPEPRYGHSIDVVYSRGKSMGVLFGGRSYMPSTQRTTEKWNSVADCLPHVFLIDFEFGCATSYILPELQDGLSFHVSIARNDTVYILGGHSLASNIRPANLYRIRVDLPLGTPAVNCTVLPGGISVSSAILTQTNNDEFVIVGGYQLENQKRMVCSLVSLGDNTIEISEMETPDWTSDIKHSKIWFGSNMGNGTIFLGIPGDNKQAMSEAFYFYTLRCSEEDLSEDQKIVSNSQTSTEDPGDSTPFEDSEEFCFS

[2] = molecular target: T2, MCR1 (MBP-core RAG1);GST-core RAG2 (mouse?;mouse?, UniProt P15919;P21784 384-1008;1-387, |); assay: EMSA
T2 sequence 1: T1 sequence 1
T2 sequence 2: T1 sequence 2

MCR1 (MBP-core RAG1) [3] = molecular target: T3, MCR1 (MBP-core RAG1) (UniProt P15919 384-1008); assay: EMSA
T3 sequence: T1 sequence 1

MCR1 (MBP-core RAG1) [4] = molecular target: T3, MCR1 (MBP-core RAG1); assay: fluorescence anisotropy
MCR1 (MBP-core RAG1) [5] = molecular target: T3, MCR1 (MBP-core RAG1); assay: EMSA; remark: listed apart in the source
[6] = molecular target: T2, MCR1 (MBP-core RAG1);GST-core RAG2; assay: EMSA; remark: listed apart in the source
[7] = molecular target: T1, MCR1 from 293T (co-expressed with …); assay: EMSA; remark: listed apart in the source
[8] = molecular target: T1, MCR1 from 293T (co-expressed with …); assay: EMSA; remark: listed apart in the source
MCR1 (MBP-core RAG1) [9] = molecular target: T3, MCR1 (MBP-core RAG1); assay: fluorescence anisotropy; remark: listed apart in the source
MCR1 (MBP-core RAG1) [10] = molecular target: T3, MCR1 (MBP-core RAG1); assay: fluorescence anisotropy; remark: listed apart in the source
MCR1 (MBP-core RAG1) [11] = molecular target: T3, MCR1 (MBP-core RAG1); assay: competition

B1: MHMN (mutant heptamer, mutant nonamer) (dsDNA)
DNA 1: GATATGGCTCGTCTTAGAGAAGCATATAGACCTTAAGGCTCTGATCCAATCGAGCGGAG
DNA 2: CTCCGCTCGATTGGATCAGAGCCTTAAGGTCTATATGCTTCTCTAAGACGAGCCATATC
- binding result [1]: no binding
- binding result [2]: no binding
- Kd (MCR1 (MBP-core RAG1) [3]): 123 ± 7 nM

B2: Oregon Green MHMN (dsDNA)
DNA 1: B1 DNA 1
DNA 2: B1 DNA 2
- Kd (MCR1 (MBP-core RAG1) [4]): 28 ± 8 nM

B3: WT 12-RSS (dsDNA)
DNA 1: GATATGGCTCGTCTTACACAGTGATATAGACCTTAACAAAAACCTCCAATCGAGCGGAG
DNA 2: CTCCGCTCGATTGGAGGTTTTTGTTAAGGTCTATATCACTGTGTAAGACGAGCCATATC
- Kd (MCR1 (MBP-core RAG1) [5]): 114 ± 5 nM
- Kd [6]: 87 ± 10 nM
- Kd [7]: 25 ± 5 nM
- Kd [8]: 32 ± 5 nM

B4: Oregon Green WT 12-RSS (dsDNA)
DNA 1: B3 DNA 1
DNA 2: B3 DNA 2
- Kd (MCR1 (MBP-core RAG1) [9]): 123 nM
- Kd (MCR1 (MBP-core RAG1) [10]): 27 ± 9 nM

B5: unlabeled WT 12-RSS competitor (dsDNA)
DNA 1: B3 DNA 1
DNA 2: B3 DNA 2
- IC50 (MCR1 (MBP-core RAG1) [11]): 150 nM
